Like-named read-outs stand apart in the source and are kept apart here. Values belong to the binder of their own block, whether it stands above or below them.
How the values were obtained:
[1] = molecular target: T1, cynomolgus monkey FcγRIIIaS extracellular domain with C-terminal His-tag (cynomolgus monkey, UniProt Q8SPW2 21-206 at identity 1.00)); assay: SPR, KD(SG1)/KD(variant)
T1 construct: also called cyno FcgRIIIaS; cynoFcγRIIIaS
T1 chain: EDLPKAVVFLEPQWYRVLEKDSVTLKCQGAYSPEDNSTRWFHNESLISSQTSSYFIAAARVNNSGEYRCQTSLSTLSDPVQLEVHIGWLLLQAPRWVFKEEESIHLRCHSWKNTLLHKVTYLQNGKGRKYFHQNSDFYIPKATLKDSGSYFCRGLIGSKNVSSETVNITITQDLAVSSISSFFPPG

[2] = molecular target: T2, human FcγRIIaH extracellular domain with C-terminal His-tag (human, UniProt P12318 34-217); assay: SPR, KD(SG1)/KD(variant)
T2 construct: also called human FcgRIIaH; FcγRIIa (type H)
T2 sequence: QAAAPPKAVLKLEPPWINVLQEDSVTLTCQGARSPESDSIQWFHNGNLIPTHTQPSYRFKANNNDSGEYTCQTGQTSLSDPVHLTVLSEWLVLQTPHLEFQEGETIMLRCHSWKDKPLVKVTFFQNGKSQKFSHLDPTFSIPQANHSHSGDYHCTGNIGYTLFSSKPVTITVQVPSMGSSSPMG

[3] = molecular target: T3, cynomolgus monkey FcγRIIa1 extracellular domain with C-terminal His-tag (cynomolgus monkey); assay: SPR, KD(SG1)/KD(variant)
T3 construct: also called cyno FcgRIIa1; cynoFcγRIIa1
T3 chain: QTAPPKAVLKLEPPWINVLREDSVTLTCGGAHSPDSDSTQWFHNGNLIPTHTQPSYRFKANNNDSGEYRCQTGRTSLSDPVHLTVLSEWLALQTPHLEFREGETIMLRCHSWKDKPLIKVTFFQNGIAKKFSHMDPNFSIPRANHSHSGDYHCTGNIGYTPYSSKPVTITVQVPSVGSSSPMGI

[4] = molecular target: T4, cynomolgus monkey FcγRIIa2 extracellular domain with C-terminal His-tag (cynomolgus monkey); assay: SPR, KD(SG1)/KD(variant)
T4 construct: also called cyno FcgRIIa2; cynoFcγRIIa2
T4 chain: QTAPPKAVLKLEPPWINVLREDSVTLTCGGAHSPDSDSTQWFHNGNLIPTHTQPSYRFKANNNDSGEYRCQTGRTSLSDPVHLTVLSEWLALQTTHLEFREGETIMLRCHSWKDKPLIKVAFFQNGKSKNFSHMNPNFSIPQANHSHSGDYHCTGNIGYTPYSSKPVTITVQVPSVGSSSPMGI

[5] = molecular target: T5, cynomolgus monkey FcγRIIa3 extracellular domain with C-terminal His-tag (cynomolgus monkey); assay: SPR, KD(SG1)/KD(variant)
T5 construct: also called cyno FcgRIIa3; cynoFcγRIIa3
T5 chain: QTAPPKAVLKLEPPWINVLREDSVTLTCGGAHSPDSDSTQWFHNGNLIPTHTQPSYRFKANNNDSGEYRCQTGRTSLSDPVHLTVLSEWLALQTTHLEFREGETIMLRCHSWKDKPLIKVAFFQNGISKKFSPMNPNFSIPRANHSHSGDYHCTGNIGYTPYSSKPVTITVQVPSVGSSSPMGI

[6] = molecular target: T1, cynomolgus monkey FcγRIIIaS …; assay: SPR, KD(SG1)/KD(variant)
[7] = molecular target: T5, cynomolgus monkey FcγRIIa3 …; assay: SPR, antibody captured, FcγR analyte
[8] = molecular target: T6, cynomolgus monkey FcγRIIb extracellular domain with C-terminal His-tag (cynomolgus monkey); assay: SPR, antibody captured, FcγR analyte
T6 construct: also called cyno FcgRIIb; cynoFcγRIIb
T6 chain: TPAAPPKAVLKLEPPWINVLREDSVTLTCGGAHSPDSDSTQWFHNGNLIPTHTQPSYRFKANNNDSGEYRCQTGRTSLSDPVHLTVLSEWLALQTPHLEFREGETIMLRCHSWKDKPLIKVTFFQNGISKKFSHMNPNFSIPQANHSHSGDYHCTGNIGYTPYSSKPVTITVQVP

[9] = molecular target: T1, cynomolgus monkey FcγRIIIaS …; assay: SPR, antibody captured, FcγR analyte
[10] = molecular target: T5, cynomolgus monkey FcγRIIa3 …; assay: SPR, KD(SG1)/KD(variant)
Procedure: The kinetic analysis of interactions between these antibodies and FcγR was carried out using BIACORE® T200 or BIACORE® 4000 (GE Healthcare). HBS-EP+ (GE Healthcare) was used as the running buffer, and the measurement temperature was set to 25° C. […] After the measurement, the antibody captured on the chip was washed off by allowing reaction with 10 mM glycine-HCl, pH1.5 and 25 mM NaOH so that the chip was regenerated and used repeatedly. The sensorgrams obtained as measurement results were analyzed by the 1:1 Langmuir binding model using the BIACORE® Evaluation Software to calculate the binding rate constant ka (L/mol/s) and dissociation rate constant kd (1/s), and the dissociation constant KD (mol/L) was calculated from these values. […] Regarding such interactions, KD values were calculated using the following 1:1 binding model described in BIACORE® T100 Software Handbook BR1006-48 Edition AE.

[11] = molecular target: T7, cynomolgus monkey FcγRIIb extracellular domain with C-terminal His-tag (cynomolgus monkey); assay: SPR (Biacore), KD of SG1 divided by KD of variant
T7 construct: also called cyno FcgRIIb; cynoFcγRIIb
T7 chain: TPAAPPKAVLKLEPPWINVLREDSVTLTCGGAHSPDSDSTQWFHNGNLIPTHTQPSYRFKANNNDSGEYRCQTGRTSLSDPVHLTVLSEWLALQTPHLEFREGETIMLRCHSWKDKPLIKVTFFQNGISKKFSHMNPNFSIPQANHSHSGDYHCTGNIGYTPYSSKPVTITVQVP

[12] = molecular target: T8, human FcγRIIaH extracellular domain with C-terminal His-tag (human, UniProt P12318 34-217); assay: SPR (Biacore), KD of SG1 divided by KD of variant
T8 construct: also called human FcgRIIaH; FcγRIIa (type H)
T8 sequence: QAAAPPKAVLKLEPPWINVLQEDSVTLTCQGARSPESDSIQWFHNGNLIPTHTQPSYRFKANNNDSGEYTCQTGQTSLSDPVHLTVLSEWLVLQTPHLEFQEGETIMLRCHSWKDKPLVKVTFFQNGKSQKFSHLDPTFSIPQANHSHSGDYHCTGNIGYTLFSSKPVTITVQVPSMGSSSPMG

[13] = molecular target: T9, human FcγRIIaR extracellular domain with C-terminal His-tag (human, UniProt P12318 34-217); assay: SPR (Biacore), KD of SG1 divided by KD of variant
T9 construct: also called human FcgRIIaR; FcγRIIa (type R)
T9 chain: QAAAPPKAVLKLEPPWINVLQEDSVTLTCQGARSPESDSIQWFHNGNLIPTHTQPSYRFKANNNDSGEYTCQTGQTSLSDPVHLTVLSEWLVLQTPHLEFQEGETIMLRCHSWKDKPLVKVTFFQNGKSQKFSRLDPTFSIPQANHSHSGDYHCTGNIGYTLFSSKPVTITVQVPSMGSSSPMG

[14] = molecular target: T10, human FcγRIIb extracellular domain with C-terminal His-tag (human, UniProt P31994 43-217); assay: SPR (Biacore), KD of SG1 divided by KD of variant
T10 construct: also called human FcgRIIb
T10 sequence: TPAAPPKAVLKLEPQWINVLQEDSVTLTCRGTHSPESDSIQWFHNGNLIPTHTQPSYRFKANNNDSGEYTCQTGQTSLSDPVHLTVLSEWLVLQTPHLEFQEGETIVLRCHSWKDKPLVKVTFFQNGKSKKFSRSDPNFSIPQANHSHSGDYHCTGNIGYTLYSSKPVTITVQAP

[15] = molecular target: T11, cynomolgus monkey FcγRIIa2 extracellular domain with C-terminal His-tag (cynomolgus monkey); assay: SPR (Biacore), antibody captured, FcgR as analyte
T11 construct: also called cyno FcgRIIa2; cynoFcγRIIa2
T11 chain: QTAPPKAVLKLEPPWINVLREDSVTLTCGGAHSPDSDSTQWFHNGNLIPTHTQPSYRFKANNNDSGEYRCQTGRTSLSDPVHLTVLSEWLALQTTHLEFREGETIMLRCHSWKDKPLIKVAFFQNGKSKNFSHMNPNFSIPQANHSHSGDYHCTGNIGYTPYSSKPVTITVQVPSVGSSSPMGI

[16] = molecular target: T8, human FcγRIIaH extracellular domain …; assay: SPR (Biacore), antibody captured, FcgR as analyte

KD fold (SG1 = 1) [1]: 0.17 fold | KD fold (SG1 = 1) [2]: 1.8 fold
B1: M103205H795-MY535/M103202L889-SK1 (antibody, human IgG1, kappa, name in EU numbering)
heavy: QVTLKESGPVLVKPTETLTLTCTVSGIDLSHDDISWVRQAPGKGLEWVGIISYAGSTYYASWAKGRLTISKDTSKNQVVLTMTNMDPVDTATYYCARGVPAYSHGGDLWGQGTLVTVSSASTKGPSVFPLAPSSKSTSGGTAALGCLVKDYFPEPVTVSWNSGALTSGVHTFPAVLQSSGLYSLSSVVTVPSSSLGTQTYICNVNHKPSNTKVDKKVEPKSCDKTHTCPPCPGPEWLTGPSVFLFPPKPKDTLMISRTPEVTCVVVDVSDEDPEVKFNWYVDGVEVHNAKTKPREEQYNSTYRVVSVLTVLHQDWLNGKEYKCKVSNKALPKPIEKTISKAKGQPREPQVYTLPPSREEMTKNQVSLTCLVKGFYPSDIAVEWESNGQPENNYKTTPPVLDSDGSFFLYSKLTVDKSRWQQGNVFSCSVMHEALHNHYTQKSLSLSP
light: DIVMTQSPATLSLSPGERATLSCTSSQSVYHANWLSWFQQKPGQPPKLLIYWASTLAYGVPSRFSGSGSGTDFTLTISSLQPEDAATYYCAGGYGGGRYAFGQGTKVEIKRTVAAPSVFIFPPSDEQLKSGTASVVCLLNNFYPREAKVQWKVDNALQSGNSQESVTEQDSKDSTYSLSSTLTLSKADYEKHKVYACEVTHQGLSSPVTKSFNRGEC
notes: copies: 2 + 2

KD fold (SG1 = 1) [3]: 2.5 fold | KD fold (SG1 = 1) [4]: 3.9 fold | KD fold (SG1 = 1) [5]: 2.5 fold | KD fold (SG1 = 1) [6]: 0.08 fold | Kd [7]: 3.5 µM | Kd [8]: 550 nM | Kd [9]: 4.4 µM
B2: MS1032LO06-PK56 (antibody, human IgG1, kappa)
heavy: QVTLKESGPVLVKPTETLTLTCTVSGIDLSHDDISWVRQAPGKGLEWVGIISYAGSTYYASWAKGRLTISKDTSKNQVVLTMTNMDPVDTATYYCARGVPAYSHGGDLWGQGTLVTVSSASTKGPSVFPLAPSSKSTSGGTAALGCLVKDYFPEPVTVSWNSGALTSGVHTFPAVLQSSGLYSLSSVVTVPSSSLGTQTYICNVNHKPSNTKVDKKVEPKSCDKTHTCPPCPAPELLNGPSVFLFPPKPKDTLMISRTPEVTCVVVDVSDEDPEVKFNWYVDGVEVHNAKTKPREEQYNSTYRVVSVLTVLHRDWLNGKEYKCKVSNKALPKPIEKTISKAKGQRREPQVYTLPPSREEMTKNQVSLTCLVKGFYPSDIAVEWESNGQPENNYKTTPPVLDSDGSFFLYSKLTVRKSRWQQGNVFSCSVMHEALHNHYTQKSLSLSP
light: DIVMTQSPATLSLSPGERATLSCTSSQSVYHANWLSWFQQKPGQPPKLLIYWASTLAYGVPSRFSGSGSGTDFTLTISSLQPEDAATYYCAGGYGGGRYAFGQGTKVEIKRTVAAPSVFIFPPSDEQLKSGTASVVCLLNNFYPREAKVQWKVDNALQSGNSQESVTEQDSKDSTYSLSSTLTLSKADYEKHKVYACEVTHQGLSSPVTKSFNRGEC
notes: MY201 with Q311R/P343R/D413R; also called MS103205H795-PK56; M103205H795-MY56

KD fold (SG1 = 1) [10]: 5.2 fold
B3: MS1032LO06-MY205 (antibody, human IgG1, kappa)
heavy: QVTLKESGPVLVKPTETLTLTCTVSGIDLSHDDISWVRQAPGKGLEWVGIISYAGSTYYASWAKGRLTISKDTSKNQVVLTMTNMDPVDTATYYCARGVPAYSHGGDLWGQGTLVTVSSASTKGPSVFPLAPSSKSTSGGTAALGCLVKDYFPEPVTVSWNSGALTSGVHTFPAVLQSSGLYSLSSVVTVPSSSLGTQTYICNVNHKPSNTKVDKKVEPKSCDKTHTCPPCPAPELLNGPSVFLFPPKPKDTLMISRTPEVTCVVVDVSDEDPEVKFNWYVDGVEVHNAKTKPREELYNSTYRVVSVLTVLHQDWLNGKEYKCKVSNKALPKPIEKTISKAKGQPREPQVYTLPPSREEMTKNQVSLTCLVKGFYPSDIAVEWESNGQPENNYKTTPPVLDSDGSFFLYSKLTVDKSRWQQGNVFSCSVMHEALHNHYTQKSLSLSP
light: DIVMTQSPATLSLSPGERATLSCTSSQSVYHANWLSWFQQKPGQPPKLLIYWASTLAYGVPSRFSGSGSGTDFTLTISSLQPEDAATYYCAGGYGGGRYAFGQGTKVEIKRTVAAPSVFIFPPSDEQLKSGTASVVCLLNNFYPREAKVQWKVDNALQSGNSQESVTEQDSKDSTYSLSSTLTLSKADYEKHKVYACEVTHQGLSSPVTKSFNRGEC
notes: also called M103205H795-MY205; copies: 2 + 2

KD fold (SG1 = 1) [11]: 2.7 fold | KD fold (SG1 = 1) [12]: 2.9 fold | KD fold (SG1 = 1) [13]: 5.5 fold | KD fold (SG1 = 1) [14]: 2.9 fold | Kd [15]: 1900 nM | Kd [16]: 240 nM
B4: M103205H795-MY387 / M103202L889-SK1 (antibody, human IgG1, kappa, name in EU numbering)
heavy: QVTLKESGPVLVKPTETLTLTCTVSGIDLSHDDISWVRQAPGKGLEWVGIISYAGSTYYASWAKGRLTISKDTSKNQVVLTMTNMDPVDTATYYCARGVPAYSHGGDLWGQGTLVTVSSASTKGPSVFPLAPSSKSTSGGTAALGCLVKDYFPEPVTVSWNSGALTSGVHTFPAVLQSSGLYSLSSVVTVPSSSLGTQTYICNVNHKPSNTKVDKKVEPKSCDKTHTCPPCPAPELLTGPVVFLFPPKPKDTLMISRTPEVTCVVVDVSDEDPEVKFNWYVDGVEVHNAKTKPREEQYNSTYRVVSVLTVLHQDWLNGKEYKCKVSNKALPKPIEKTISKAKGQPREPQVYTLPPSREEMTKNQVSLTCLVKGFYPSDIAVEWESNGQPENNYKTTPPVLDSDGSFFLYSKLTVDKSRWQQGNVFSCSVMHEALHNHYTQKSLSLSP
light: DIVMTQSPATLSLSPGERATLSCTSSQSVYHANWLSWFQQKPGQPPKLLIYWASTLAYGVPSRFSGSGSGTDFTLTISSLQPEDAATYYCAGGYGGGRYAFGQGTKVEIKRTVAAPSVFIFPPSDEQLKSGTASVVCLLNNFYPREAKVQWKVDNALQSGNSQESVTEQDSKDSTYSLSSTLTLSKADYEKHKVYACEVTHQGLSSPVTKSFNRGEC

Source: patent publication US20250076311A1 (Chugai, published 2025)
